Literature values in PMC7768908 (Biochemistry, 2020).

How the values were obtained:
[1] = tested on: cytoplasmic tail of MT1-MMP; conditions: ref [13]
[2] = tested on: MT1-MMP; conditions: by binding the cytoplasmic tail of MT1-MMP; ref [13]

B1: ADI1 gene product: ADI1 gene encoding HsARD; human acireductone dioxygenase (protein, UniProt Q9BV57 1-179, looked up)
Acireductone dioxygenase: MVQAWYMDDAPGDPRQPHRPDPGRPVGLEQLRRLGVLYWKLDADKYENDPELEKIRRERNYSWMDIITICKDKLPNYEEKIKMFYEEHLHLDDEIRYILDGSGYFDVRDKEDQWIRIFMEKGDMVTLPAGIYHRFTVDEKNYTKAMRLFVGEPVWTAYNRPADHFEARGQYVKFLAQTA
With B1 as the molecule, how does the “binding to the cytoplasmic tail of MT1-MMP” value [1] read?
The value was “binds to the cytoplasmic tail of MT1-MMP”.

And the “effect on MT1-MMP protease activity” value [2]?
Its value is “suppressing protease activity”.
